Experimental data reported in patent publication US8129345B2, “MUC1-IκB kinase complexes and their activities” (Dana-Farber Cancer Institute, Inc., priority 2006, dated 2012).
“Also recorded” adds a separate entry of the source.

Assays:
IKKγ = IKKγ (Homo sapiens, UniProt Q9Y6K9); assay: In vitro GST pull-down binding to IKKγ; settings: GST pull-down with purified proteins, immunoblot
Protocol: FIG. 5B is a pair of photographs of immunoblots showing an interaction between MUC1-CD and IKKγ. GST- and GST-IKKγ bound to glutathione beads were incubated with purified MUC1-CD. The precipitates were immunoblotted (IB) with anti-MUC1-C antibodies. Commassie blue staining of the gel was performed to confirm that equal amounts of GST- and GST-IKKγ were used in the experiment. The molecular weights of proteins (as indicated on the left of the photographs) are expressed as kilodaltons (kDa).
(§1) FIG. 5C is a pair of photographs of immunoblots. GST- and the indicated GST-MUC1-CD fusion proteins or fragments bound to glutathione beads were incubated with purified IKKγ. The precipitates were immunoblotted (IB) with anti-IKKγ antibody. Commassie blue staining of the gel was performed to confirm that equal amounts of GST- and GST-MUC1 proteins were used in the experiment. The molecular weights of proteins (as indicated on the left of the photographs) are expressed as kilodaltons (kDa).
FIG. 5D is a pair of photographs of immunoblots. GST and the indicated GST-IKKγ fusion proteins bound to glutathione beads were incubated with MUC1-CD. The precipitates were immunoblotted (IB) with anti-MUC1-C antibody. Commassie blue staining of the gel was performed to confirm that equal amounts of GST- and GST-IKKγ proteins were used in the experiment. The molecular weights of proteins (as indicated on the left of the photographs) are expressed as kilodaltons (kDa).
as §1, with “FIG. 11B” for “FIG. 5C”, “of an immunoblot and Coomassie blue stained gel. GST” for “of immunoblots. GST-”, “proteins (MUC1-CD and MUC1-CD(mSRM))” for “proteins or fragments”, “with” for “with purified”, “with an” for “with”, “and GST-MUC1-CD” for “and GST-MUC1”
(§2) In vitro binding assays. Purified GST-MUC1-CD (glutathione s-transferase fused to the MUC1-CD polypeptide) was cleaved with thrombin to remove the GST moiety. GST, GST-IKKβ (DiDonato et al. (1997) Nature 388:548-554), GST-IKKβ (1-458), GST-IKKβ (458-756), GST-IKKγ (Prajapati et al. (2002) J. Biol. Chem. 277:24331-24339), GST-IKKγ (1-196) or GST-IKKγ (197-419) were then incubated with the MUC1-CD for 1 hour at 25° C. In other experiments, GST, GST-MUC1-CD, GST-MUC1-CD(1-45) or GST-MUC1-CD(46-72) were incubated with purified IKKβ or IKKγ. Adsorbates to glutathione-conjugated beads were analyzed by immunoblotting.

IKKβ [1] = target: T1, IKKβ (Homo sapiens, UniProt O14920); assay: In vitro GST pull-down binding to IKKβ; settings: GST pull-down with purified proteins, immunoblot
T1 sequence (O14920 1-756): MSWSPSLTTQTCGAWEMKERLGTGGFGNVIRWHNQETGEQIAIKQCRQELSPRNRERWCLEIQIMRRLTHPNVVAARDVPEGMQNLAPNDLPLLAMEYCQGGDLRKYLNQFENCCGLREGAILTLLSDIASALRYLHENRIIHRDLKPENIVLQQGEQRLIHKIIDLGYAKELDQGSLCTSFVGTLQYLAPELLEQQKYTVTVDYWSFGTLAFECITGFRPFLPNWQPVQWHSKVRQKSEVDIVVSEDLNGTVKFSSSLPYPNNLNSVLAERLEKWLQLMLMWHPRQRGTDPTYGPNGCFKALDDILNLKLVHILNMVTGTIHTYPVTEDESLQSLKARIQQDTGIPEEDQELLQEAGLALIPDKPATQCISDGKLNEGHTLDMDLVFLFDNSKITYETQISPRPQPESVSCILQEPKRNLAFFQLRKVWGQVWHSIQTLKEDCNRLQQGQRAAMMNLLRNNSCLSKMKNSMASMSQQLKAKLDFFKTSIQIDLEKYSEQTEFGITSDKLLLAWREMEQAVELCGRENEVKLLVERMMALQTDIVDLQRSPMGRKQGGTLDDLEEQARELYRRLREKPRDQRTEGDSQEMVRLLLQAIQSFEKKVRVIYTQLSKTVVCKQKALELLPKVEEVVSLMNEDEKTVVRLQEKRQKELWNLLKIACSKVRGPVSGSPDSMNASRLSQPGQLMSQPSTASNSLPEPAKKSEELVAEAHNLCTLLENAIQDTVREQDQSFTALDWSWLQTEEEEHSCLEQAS
Protocol: FIG. 4B is a pair of photographs of immunoblots. Recombinantly expressed, purified GST- and GST-IKKβ proteins bound to glutathione-agarose beads were incubated with purified MUC1-CD protein. The precipitates were immunoblotted (IB) with anti-MUC1-C antibodies. Input of the GST and GST-IKKβ proteins was assessed by Coomassie blue staining. The molecular weights of proteins (as indicated on the left of the photographs) are expressed as kilodaltons (kDa).
FIG. 4C (top panel) is a schematic diagram of the amino acid sequence of (i) the MUC1-cytoplasmic domain (MUC1-CD) [amino acids 1-72; SEQ ID NO:2]; (ii) the MUC1-CD fragment [amino acids 1-45; SEQ ID NO:3]; and (iii) the MUC-CD fragment [amino acids 46-72; SEQ ID NO:4]. FIG. 4C (bottom panel) is a photograph of an immunoblot and a photograph of a Coomassie blue-stained electrophoretic gel. GST- and the indicated GST-MUC1-CD fusion proteins bound to glutathione beads were incubated with purified IKKβ. The precipitates were immunoblotted with anti-IKKβ. Input of the GST and GST-MUC1-CD fusion proteins was assessed by Coomassie blue staining. The molecular weights of proteins (as indicated on the left of the photographs) are expressed as kilodaltons (kDa).
FIG. 11A is a pair of photographs of an immunoblot and Coomassie-blue stained gel. GST and the indicated GST-MUC1-CD fusion proteins (MUC1-CD and MUC1-CD(mSRM)) bound to glutathione beads were incubated with IKKβ. The precipitates were immunoblotted (IB) with an anti-IKKβ antibody. Commassie blue staining of the gel was performed to confirm that equal amounts of GST- and GST-MUC1-CD proteins were used in the experiment. The molecular weights of proteins (as indicated on the left of the photographs) are expressed as kilodaltons (kDa).
(§3) In vitro binding assays. Purified GST-MUC1-CD (glutathione s-transferase fused to the MUC1-CD polypeptide) was cleaved with thrombin to remove the GST moiety. […] Adsorbates to glutathione-conjugated beads were analyzed by immunoblotting.

IKKβ [2] = target: IKKβ (Homo sapiens, UniProt O14920); assay: In vitro incubation of IKKβ and IKKγ with ATP, phospho-IKKβ-Ser-181 immunoblot; format: biochemical; settings: MUC1 protein added to the reaction
Protocol: (§4) FIG. 13 is a series of photographs of immunoblots. GST, and GST-IKKγ fusion proteins bound to glutathione beads were incubated with MUC1-CD, MUC1-CD(mSRM), or IKKβ proteins as indicated. The GST-pull down precipitates were immunoblotted (IB) with antibodies specific for (from top to bottom) phosphor-IKKβ-Ser-181 (first panel), IKKγ (second panel), IKKβ (third panel), or MUC1 (fourth panel) as indicated. The molecular weights of proteins (as indicated on the left of the photographs) are expressed as kilodaltons (kDa).
Target sequence in this assay (Q9Y6K9 whole entry partner, one chain of several, the tested form may be a part): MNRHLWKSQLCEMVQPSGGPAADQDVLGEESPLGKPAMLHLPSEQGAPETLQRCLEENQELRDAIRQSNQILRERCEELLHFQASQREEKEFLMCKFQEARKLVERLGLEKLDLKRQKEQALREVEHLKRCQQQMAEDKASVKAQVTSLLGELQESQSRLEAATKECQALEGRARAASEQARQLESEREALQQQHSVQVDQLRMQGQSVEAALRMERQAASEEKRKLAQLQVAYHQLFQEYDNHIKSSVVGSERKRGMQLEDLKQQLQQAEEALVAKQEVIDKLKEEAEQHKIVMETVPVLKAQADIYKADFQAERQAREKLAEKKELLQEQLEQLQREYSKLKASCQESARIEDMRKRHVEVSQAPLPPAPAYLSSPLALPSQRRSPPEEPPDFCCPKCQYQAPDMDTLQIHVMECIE

IKKβ-IKKγ complexes = IKKβ-IKKγ complexes (Homo sapiens, UniProt O14920+Q9Y6K9); assay: In vitro association of IKKβ with GST-IKKγ in absence and presence of MUC1-CD proteins; format: binding; settings: purified IKKβ and GST-IKKγ, with or without added MUC1 protein
Protocol: FIG. 7C is a series of photographs of immunoblots. GST- or GST-IKKγ bound to glutathione beads was incubated with IKKβ in the absence and presence of MUC1-CD protein. The precipitates were immunoblotted (IB) with anti-IKKβ (upper panel). Input amounts of the various proteins were assessed by immunoblotting with the indicated antibodies (lower 3 panels). The molecular weights of proteins (as indicated on the left of the photographs) are expressed as kilodaltons (kDa).
as §4, with “12” for “13”, “for” for “for (from top to bottom) phosphor-IKKβ-Ser-181 (first panel),”, “(top” for “(second”, “(middle” for “(third”, “(bottom” for “(fourth”
as §3

MUC1-CD = target: T2, MUC1-CD (Homo sapiens, UniProt P15941); assay: In vitro GST pull-down of GST-IKKβ fragments with MUC1-CD; format: binding; settings: GST-IKKβ (1-458) and GST-IKKβ (458-756) incubated with MUC1-CD
T2 construct: the MUC1-cytoplasmic domain (MUC1-CD) [amino acids 1-72; GST (N, cleaved yes); made in house
T2 sequence (P15941 1184-1255): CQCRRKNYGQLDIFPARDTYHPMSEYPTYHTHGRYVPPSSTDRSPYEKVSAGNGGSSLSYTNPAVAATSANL
Protocol: FIG. 4D is a pair of photographs of immunoblots. GST and the indicated GST-IKKβ fusion proteins bound to glutathione beads were incubated with MUC1-CD. The precipitates were immunoblotted with anti-MUC1-C antibody. The molecular weights of proteins (as indicated on the left of the photographs) are expressed as kilodaltons (kDa).
as §2

IKKγ, sequence (Q9Y6K9 whole entry): as the sequence (Q9Y6K9 whole entry partner, one chain of several, the tested form may be a part) above
IKKβ-IKKγ complexes, sequence (Q9Y6K9 whole entry, one chain of several): as the sequence (Q9Y6K9 whole entry partner, one chain of several, the tested form may be a part) above

Molecule	binding to IKKγ (IKKγ)	binding to IKKβ (IKKβ [1])	extent of IKKβ phosphorylation on Ser-181 (IKKβ [2])	interaction between IKKβ and IKKγ (IKKβ-IKKγ complexes)	binding of MUC1 to IKKβ fragments (MUC1-CD)
MUC1-CD(1-45): fragment consisting of amino acids 1-45 (SEQ ID NO:3) of the human MUC1 CD (CQCRRKNYGQLDIFPARDTYHPMSEYPTYHTHGRYVPPSSTDRSP; listed as Homo sapiens)	not	confers the ability to bind to IKKβ; also recorded: binds to IKKβ	–	–	–
MUC1-CD(46-72): fragment consisting of amino acids 46-72 (SEQ ID NO:4) of the human MUC1 CD (YEKVSAGNGGSSLSYTNPAVAATSANL; listed as Homo sapiens)	binds to IKKγ	–	–	–	–
MUC1-CD(mSRM): MUC1-CD with serine-rich motif SAGNGGSSLS mutated to AAGNGGAAAA (SEQ ID NO:14) (Mutation of the Serine rich motif from human MUC1 CD)	attenuated binding to IKKγ	no effect	attenuated	substantially less effective	–
IKKβ (1-458): fragment of amino acids 1-458 (SEQ ID NO:7) of human IKKβ (protein, listed as Homo sapiens, not fully specified; X: residue not identified in the source) MSWSPSLTTQTCGAWEMKERLGTGGFGNVIRWHNQETGEQIAIKQCRQELSPRNRERWCLEIQIMRRLTHPNVVAARDVPEGMXNLAPNDLPLLAMEYCQGGDLRKYLNQFENCCGLREGAILTLLSDIASALRYLHENRIIHRDLKPENIVLQQGEQRLIHKIIDLGYAKELDQGSLCTSFVGTLQYLAPELLEQQKYTVTVDYWSFGTLAFECITGFRPFLPNWQPVQWHSKVRQKSEVDIVVSEDLNGTVKFSSSLPYPNNLNSVLAERLEKWLQLMLMWHPRQRGTDPTYGPNGCFKALDDILNLKLVHILNMVTGTIHTYPVTEDESLQSLKARIQQDTGIPEEDQELLQEAGLALIPDKPATQCISDGKLNEGHTLDMDLVFLFDNSKITYETQISPRPQPESVSCILQEPKRNLAFFQLRKVWGQVWHSIQTLKEDCNRLQQGQRAAMMNL	–	–	–	–	MUC1 binds directly with the IKKβ N-terminal region
